Data: paper PMC10600457

B1: Nirsevimab (antibody, V domains shown)
VH: QVQLVQSGAEVKKPGSSVMVSCQASGGLLEDYIINWVRQAPGQGPEWMGGIIPVLGTVHYGPKFQGRVTITADESTDTAYMELSSLRSEDTAMYYCATETALVVSETYLPHYFDNWGQGTLVTVSS
VL: DIQMTQSPSSLSAAVGDRVTITCQASQDIVNYLNWYQQKPGKAPKLLIYVASNLETGVPSRFSGSGSGTDFSLTISSLQPEDVATYYCQQYDNLPLTFGGGTKVEIK
B2: MEDI8897*-TM (antibody, V domains shown)
VH: B1 VH
VL: B1 VL
B3: MEDI8897* (antibody, V domains shown)
VH: B1 VH
VL: B1 VL
B4: Palivizumab (antibody, V domains shown)
VH: QVTLRESGPALVKPTQTLTLTCTFSGFSLSTSGMSVGWIRQPPGKALEWLADIWWDDKKDYNPSLKSRLTISKDTSKNQVVLKVTNMDPADTATYYCARSMITNWYFDVWGAGTTVTVSS
VL: DIQMTQSPSTLSASVGDRVTITCKCQLSVGYMHWYQQKPGKAPKLLIYDTSKLASGVPSRFSGSGSGTEFTLTISSLQPDDFATYYCFQGSGYPFTFGGGTKLEIK

biological target: FcγRI (UniProt P12314); experiment: SPR
UniProt P12314, sequence (P12314 16-374): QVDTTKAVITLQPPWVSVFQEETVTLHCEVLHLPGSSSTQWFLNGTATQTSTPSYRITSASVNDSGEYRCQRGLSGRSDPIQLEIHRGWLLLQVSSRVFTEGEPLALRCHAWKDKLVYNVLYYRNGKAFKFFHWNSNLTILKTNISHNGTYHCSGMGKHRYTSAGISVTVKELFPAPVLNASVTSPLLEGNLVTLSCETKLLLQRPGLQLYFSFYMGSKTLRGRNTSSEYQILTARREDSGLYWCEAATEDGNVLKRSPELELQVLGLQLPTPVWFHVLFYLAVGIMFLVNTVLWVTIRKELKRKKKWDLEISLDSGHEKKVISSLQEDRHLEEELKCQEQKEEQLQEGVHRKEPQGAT

Row | Kd [nM] | Binder
1 | 10.3 | B1
2 | 240 | B2
3 | 1.24 | B3
4 | 1.01 | B4

biological target: FcγRIIA (UniProt P12318); experiment: SPR

Row | Kd [nM] | Binder
5 | 9300 | B1
6 | 34400 | B2
7 | 3720 | B3
8 | 2780 | B4

biological target: FcγRIIB (UniProt P31994); experiment: SPR
UniProt P31994, sequence (P31994 43-310): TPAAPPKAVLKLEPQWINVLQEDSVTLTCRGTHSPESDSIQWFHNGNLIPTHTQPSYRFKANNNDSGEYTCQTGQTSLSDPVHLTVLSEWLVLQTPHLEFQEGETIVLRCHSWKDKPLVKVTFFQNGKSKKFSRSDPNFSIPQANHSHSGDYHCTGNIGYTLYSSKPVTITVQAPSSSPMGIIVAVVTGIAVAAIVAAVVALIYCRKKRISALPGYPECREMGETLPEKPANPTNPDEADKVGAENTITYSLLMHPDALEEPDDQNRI

Row | Kd [nM] | Binder
9 | 13500 | B3
10 | 12500 | B4

biological target: FcγRIIIA-158V; experiment: SPR

Row | Kd [nM] | Binder
11 | 2110 | B1
12 | 5150 | B2
13 | 1150 | B3
14 | 882 | B4
